# In patent US20210333284A1, “METHODS AND MATERIALS FOR LARGE-SCALE ASSESSMENT OF LIGAND BINDING SELECTIVITY OF G-QUADRUPLEX RECOGNITION USING CUSTOM G4 MICROARRAYS” (Purdue Research Foundation, priority 2020, published 2021):
# Assays:
# [1] = test system: genomic G4 sequences (folded G4 structures); experiment: G4 microarray binding in potassium vs lithium; set-up: species or system human; settings: GST-tagged proteins
# Protocol: The binding specificities of several molecules were evaluated. Microarrays were preincubated with 100 mM potassium chloride to induce G4 formation. Binding of each molecule is measured by detection of fluorescence intensity at each of the microarray features. BG4 and pyridostatin were conjugated with Cy5. Cellular proteins were expressed as chimeric proteins containing GST, and binding for these proteins was detected using an anti-GST antibody conjugated with Cy5 (Materials and Methods). G4 Structures Fold on DNA Microarrays. To evaluate the utility of DNA microarrays to examine G4-binding specificity, a Cy5-labeled pyridostatin (Cy5-PDS), a small molecule known to bind broadly to G4 structures, was synthesized.^13 A Cy5 conjugated version of BG4 (Cy5-BG4), an antibody developed to bind G4s, was also obtained.^31 FIG. 1A, B presents replicate binding intensities to 15,491 DNA sequences on the Design 3 microarray using either Cy5-PDS or Cy5-BG4. For Cy5-PDS, robust binding is observed at 1 μM, with fluorescence intensities ranging over 100-fold between strongest and weakest bound DNA features. The fluorescence-binding intensities of Cy5-PDS are proportional to the concentration of pyridostatin used). […] Antibody binding to non-G4 features increases with higher concentrations, and in some cases non-G4 sequences are more strongly bound by Cy5-BG4 than G4 sequences, including multiple cytosine-rich negative control sequences. Inhibition of G4 Formation Inhibits Cy5-PDS and Cy5-BG4 Binding. Cy5-PDS and Cy5-BG4 binding under conditions that inhibit G4 formation was examined to evaluate if G4 structures form on the microarray and are required for binding. […] It is noted that many sequences, in addition to the oncogene G4 sequences, are capable of forming G4s. […] For Cy5-BG4, the decrease in binding was up to 270-fold for genomic G4 sequences, while binding to negative controls decreased up to 23-fold (FIG. 1D,). In a second experiment, Cy5-PDS binding following a primer extension reaction that produces dsDNA^24 was examined (see Materials and Methods), anticipating that dsDNA would predominate over G4 formation^13. […] 2,27,28
# (§1) Microarrays were preincubated with a 100 mM potassium chloride solution for 1 h at RT to induce G4 formation. Protein binding microarray experiments were then performed as previously described.^23 Microarrays were blocked with 4% nonfat dry milk in a potassium phosphate buffer before incubation with proteins or small molecules. Expressed proteins were blocked with 4% nonfat dry milk, ssDNA, and BSA. For the validation experiments, microarrays were also treated with 100 mM lithium chloride to inhibit G4 formation. For experiments examining dsDNA, single-stranded DNA probes were made double-stranded using a primer complementary to a 24-mer constant sequence following the method described previously.^23,24 Double stranding efficiency was monitored using 4% Cy3-dCTP.
# Protein or molecule-bound microarrays were scanned with the G5761A SureScan Dx Microarray Scanner System (Agilent) to detect a Cy5 signal at two laser settings (30 and 100 PMT) to ensure signal intensities were below saturation. Spot intensities from microarray images were extracted using the Agilent Feature Extraction Software and are reported as raw fluorescence units. All binding assays were performed at least twice, with high agreement between replicates (R>0.8). Microarrays with the fewest number of saturated spots were used for further analysis. Median intensity was then computed for probes containing identical sequence on each microarray. […]
# [2] = test system: G4 sequences and non-G4 ssDNA controls on Design 3 microarray; experiment: Custom G4 DNA microarray, direct binding by fluorescence intensity; set-up: species or system human
# Source text: Three Agilent DNA microarrays (TABLE 1) were designed, each with four identical sectors that contain ca.177,440 ssDNA 60-mers to examine G4-binding specificity. Arrays were designed with 9-73 replicates of each unique sequence to ensure statistical significance (TABLE 1). Each microarray contains different sets of G4 variants designed to examine several sequence parameters that affect G4 formation and binding specificity such as loop length (Design 1), loop sequence (Design 2), tail sequence (Design 2), and single nucleotide variants of six known G4s (Design 3). All microarrays include a set of 19 sequences from human telomeres and oncogene promoters known to form G4s with various topologies as positive controls (TABLE 2). Designs 2 and 3 have a set of 295 additional G4-forming sequences from the literature.^30 For the loop length variants, the length of the tails and loops of four different MYC G4 sequences (MYC Pu27, MYC Pu18ntd, MYC Pu22, and MYC Pu22 NMR mutant) was increased up to five times their length. Loop and tail sequences were varied using A, T, G, and C polynucleotide stretches and a subset of combinations. For the loop sequence variants, 4,096 sequences of the form NGGGNGGGNNGGGNGGGN (SEQ ID NO: 2) and 64 variants of the form GGGNGGGNGGGNGGG (SEQ ID NO: 1) were generated. For the tail variants, 256 versions of the major MYC G4 with all possible dinucleotide tails ([…] (SEQ ID NO: 3)) were generated. […]
# The binding specificities of several molecules were evaluated. […] Binding of each molecule is measured by detection of fluorescence intensity at each of the microarray features. […] Cellular proteins were expressed as chimeric proteins containing GST, and binding for these proteins was detected using an anti-GST antibody conjugated with Cy5 (Materials and Methods). […] For Cy5-PDS, robust binding is observed at 1 μM, with fluorescence intensities ranging over 100-fold between strongest and weakest bound DNA features. The fluorescence-binding intensities of Cy5-PDS are proportional to the concentration of pyridostatin used). […]
# human telomeric G4s = experiment: G4 microarray direct binding to telomeric G4s; settings: GST-tagged helicases
# Protocol: as §1
# Protein or molecule-bound microarrays were scanned with the G5761A SureScan Dx Microarray Scanner System (Agilent) to detect a Cy5 signal at two laser settings (30 and 100 PMT) to ensure signal intensities were below saturation. Spot intensities from microarray images were extracted using the Agilent Feature Extraction Software and are reported as raw fluorescence units. […] The measured array data (Design 3, PDS) and predictions were normalized using the following
# DNA Microarray Binding Experiments DNA microarray experiments were performed and analyzed as described previously. […]
# [3] = test system: G4 sequences on custom G4 microarray; experiment: G4 microarray competition of unlabeled molecule with Cy5-PDS; format: binding, human
# Source text: Whether the microarray platform could be used to reveal the G4-binding specificity of unlabeled molecules via a competition with Cy5-PDS binding was explored. Three example molecules, unlabeled PDS, TMPyP4 (a planar molecule that nonspecifically binds G4 structures^14), and DC-34 (a molecule that selectively binds the MYC G4^15) were examined. […] The binding of unlabeled DC-34 was examined (FIG. 4). There appear to be no features that are better-bound in the presence of DC-34. […] This is consistent with the observation that DC-34 binds the top and bottom surfaces of the G4 and makes specific contacts with purines in the tail sequences.^15 The general properties of features in which DC-34 reduced binding of Cy5-PDS (ratio of PDS/PDS+DC-34) were also examined.
# as §1
# Protein or molecule-bound microarrays were scanned with the G5761A SureScan Dx Microarray Scanner System (Agilent) to detect a Cy5 signal at two laser settings (30 and 100 PMT) to ensure signal intensities were below saturation. Spot intensities from microarray images were extracted using the Agilent Feature Extraction Software and are reported as raw fluorescence units. All binding assays were performed at least twice, with high agreement between replicates (R>0.8). Microarrays with the fewest number of saturated spots were used for further analysis. […] The measured array data (Design 3, PDS) and predictions were normalized using the following
# Custom G4 microarrays have been designed that contain a total of 19,249 G4 DNA sequences [31, the entirety of disclosure of which, including the supplemental information, is incorporated herein by reference]. […] After washing to remove the unbound Cy5-PDS and BMVC, the fluorescence intensities of Cy5-PDS bound to DNA oligonucleotides were detected using a fluorescence scanner. The binding selectivity of BMVC to different G4 structures was assessed by measuring the relative fluorescence intensity reduction of Cy5-PDS as BMVC concentration increased. […]
Molecule,effect of lithium chloride (inhibiting G4 formation) on protein binding [1],binding to hTelomeric (hyb-2 G4) and hTelomeric1 (hyb-1 G4) sequences (human telomeric G4s),further results
"IGF2: GST-tagged human insulin-like growth factor II, full length ORF",weakened binding,–,"binding specificity, G4 vs non-G4 ssDNA sequences [2]: bind only G4 sequences"
WRN: GST-tagged human Werner syndrome RecQ like helicase,weakened binding,can bind both hTelomeric (hyb-2 G4) and hTelomeric1 (hyb-1 G4) sequences,–
BLM: GST-tagged human Bloom's syndrome protein helicase,weakened binding,specifically binds the wt hTelomeric sequence that forms hyb-2 G4,–
NCCOc1cc(C(=O)Nc2cc(OCCN)c3ccccc3n2)nc(C(=O)Nc2cc(OCCN)c3ccccc3n2)c1 [pyridostatin],–,–,"effect of unlabeled competitor on Cy5-PDS binding ([3]; 1 μM Cy5-PDS, various concentrations of unlabeled competitor): no change in binding specificity; binding selectivity profile to different G4 sequences ([3]; 1 μM unlabeled ligand and 1 μM Cy5-PDS): bind less selectively"
CNBP: GST-tagged human cellular nucleic acid binding protein,does not inhibit DNA binding,–,–
"PIF1: GST-tagged human PIF1 helicase (protein, listed as Homo sapiens, GST tag, GST-tagged human PIF1 helicase) MLSGIEAAAGEYEDSELRCRVAVEELSPGGQPRRRQALRTAELSLGRNERRELMLRLQAPGPAGRPRCFPLRAARLFTRFAEAGRSTLRLPAHDTPGAGAVQLLLSDCPPDRLRRFLRTLRLKLAAAPGPGPASARAQLLGPRPRDFVTISPVQPEERRLRAATRVPDTTLVKRPVEPQAGAEPSTEAPRWPLPVKRLSLPSTKPQLSEEQAAVLRAVLKGQSIFFTGSAGTGKSYLLKRILGSLPPTGTVATASTGVAACHIGGTTLHAFAGIGSGQAPLAQCVALAQRPGVRQGWLNCQRLVIDEISMVEADLFDKLEAVARAVRQQNKPFGGIQLIICGDFLQLPPVTKGSQPPRFCFQSKSWKRCVPVTLELTKVWRQADQTFISLLQAVRLGRCSDEVTRQLQATASHKVGRDGIVATRLCTHQDDVALTNERRLQELPGKVHRFEAMDSNPELASTLDAQCPVSQLLQLKLGAQVMLVKNLSVSRGLVNGARGVVVGFEAEGRGLPQVRFLCGVTEVIHADRWTVQATGGQLLSRQQLPLQLAWAMSIHKSQGMTLDCVEISLGRVFASGQAYVALSRARSLQGLRVLDFDPMAVRCDPRVLHFYATLRRGRSLSLESPDDDEAASDQENMDPIL",does not inhibit DNA binding,–,–
